This assay addresses ASC^(H118A,F136A,W169A,K174A, L177A-L178A,L192A) (ASC-YFP binding site mutant) (UniProt Q9ULZ3). The assay can be described thus: flow cytometry of ASC-YFP speck formation in transfected HEK293 cells. To be noted: parent: est. 37, read off a plot. On the technique in general: In flow cytometry, cells or beads pass a laser one at a time.

other: ASC specks (%) data for one substance are collected here from PMC8667020.

ASC-YFP, sequence (Q9ULZ3 whole entry H118A/F163A/W169A/K174A/L177A/L178A/L192A, change not shown): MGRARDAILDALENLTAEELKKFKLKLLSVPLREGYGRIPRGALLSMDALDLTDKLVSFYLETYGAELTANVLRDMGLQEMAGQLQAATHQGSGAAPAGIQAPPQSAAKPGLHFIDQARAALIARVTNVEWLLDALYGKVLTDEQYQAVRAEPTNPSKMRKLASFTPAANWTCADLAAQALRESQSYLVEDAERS

Take “ASC-YFP (from UniProt Q9ULZ3) H118A; F136A; W169A; K174A; L177A; L178A; L192A”: the other: ASC specks (%) was 13%.
